{
  "source": "patent US10047402B2",
  "about": "“RASAL1 is a major tumor suppressor gene in thyroid cancer” (THE JOHNS HOPKINS UNIVERSITY, priority 2013, dated 2018)",
  "molecules": {"B1": {"name": "RASAL1: RASAL1 cDNA from normal thyroid, c-myc tagged, in lenti-virus vector, expressed in thyroid cancer cells; RasGAP tumor suppressor protein (protein, UniProt O95294 1-804, looked up)", "RasGAP-activating-like …": "MAKSSSLNVRVVEGRALPAKDVSGSSDPYCLVKVDDEVVARTATVWRSLGPFWGEEYTVHLPLDFHQLAFYVLDEDTVGHDDIIGKISLSREAITADPRGIDSWINLSRVDPDAEVQGEICLSVQMLEDGQGRCLRCHVLQARDLAPRDISGTSDPFARVFWGSQSLETSTIKKTRFPHWDEVLELREMPGAPSPLRVELWDWDMVGKNDFLGMVEFSPKTLQQKPPKGWFRLLPFPRAEEDSGGNLGALRVKVRLIEDRVLPSQCYQPLMELLMESVQGPAEEDTASPLALLEELTLGDCRQDLATKLVKLFLGRGLAGRFLDYLTRREVARTMDPNTLFRSNSLASKSMEQFMKLVGMPYLHEVLKPVISRVFEEKKYMELDPCKMDLGRTRRISFKGALSEEQMRETSLGLLTGYLGPIVDAIVGSVGRCPPAMRLAFKQLHRRVEERFPQAEHQDVKYLAISGFLFLRFFAPAILTPKLFDLRDQHADPQTSRSLLLLAKAVQSIGNLGQQLGQGKELWMAPLHPFLLQCVSRVRDFLDRLVDVDGDEAGVPARALFPPSAIVREGYLLKRKEEPAGLATRFAFKKRYVWLSGETLSFSKSPEWQMCHSIPVSHIRAVERVDEGAFQLPHVMQVVTQDGTGALHTTYLQCKNVNELNQWLSALRKASAPNPNKLAACHPGAFRSARWTCCLQAERSAAGCSRTHSAVTLGDWSDPLDPDAEAQTVYRQLLLGRDQLRLKLLEDSNMDTTLEADTGACPEVLARQRAATARLLEVLADLDRAHEEFQQQERGKAALGPLGP", "modifications": "c-myc tag", "notes": "RASAL1 cDNA from normal thyroid, c-myc tagged, in lenti-virus vector, expressed in thyroid cancer cells; RasGAP tumor suppressor protein"}},
  "key": {"[1]": {"test_system": "thyroid cancer cell lines", "test": "Demethylation (MSP) and re-expression (RT-PCR) of RASAL1 after 5-Aza-dC treatment", "assay_type": "cell-based, human", "details": "for demethylation of RASAL1 (MSP analysis): thyroid cancer cell lines, 5 μM 5-Aza-dC for 24 hours", "method": "FIG. 2. Hypermethylation of RASAL1 and its re-expression induced by demethylation in thyroid cancer cells. […] After cells were treated with 5 μM 5-Aza-dC for 24 hours, RNA and genomic DNA were extracted and used for reverse-transcription polymerase chain reaction (RT-PCR) and MSP analysis, respectively. C) RT-PCR analysis of RASAL1 expression in thyroid cancer cell lines treated with or without demethylating agent 5-Aza-dC. D) MSP analysis of RASAL1 in matched normal and cancerous thyroid tissues. Six matched sample pairs are presented that had different methylation patterns between normal and matched tumor tissues. E) RASAL1 methylation levels represented by the indicated allelic methylation percentages (x-axis) and their frequencies (y-axis) in different types of thyroid cancers. ATC=anaplastic thyroid cancer; FTC=follicular thyroid cancer; PTC=papillary thyroid cancer.\nDNA bisulfate treatment was performed as previously described (29). See Table 3 for MSP primer sequences. The relative level of methylation was normalized using the ratio obtained from the values of the gene of interest over the values of the internal reference gene (β-actin). The relative methylation level was calculated by the formula [M/(M+U)]×100%, in which M and U represent the density of the methylation and unmethylation band, respectively. Results represent the percentage of allelic methylation of the tumor.\nRNA extraction and semi-quantitative RT-PCR were performed as previously described (Liu et al., 13(4) CLIN. CANCER RES. 1341-49 (2007)). Normal human thyroid RNA samples (Stratagene, La Jolla, Calif.) were used as the control. The RT-PCR primers are presented Table 3."}, "[2]": {"test_system": "C643 cells", "test": "Anchorage independent colony formation, stable transfection", "assay_type": "cell-based, human", "details": "C643, stably transfected; n=3; control vector 92.67±18.15; P=0.03"}, "[3]": {"test_system": "thyroid cancer cell lines", "test": "Colony formation in monolayer culture after transient RASAL1 transfection", "assay_type": "cell-based, human", "details": "transient reintroduction, compared with control vector; six of seven thyroid cancer cell lines tested"}, "[4]": {"test_system": "K1 cells", "test": "Colony formation with doxycycline-inducible RASAL1 expression", "assay_type": "cell-based, human", "details": "Dox-induced expression, control (no Dox) 86.00±8.54, P=0.006", "method": "(§1) FIG. 6. […] Scale bar=100 μm. […] Scale bar=100 μm.\nColony formation assays were performed as described previously (Liu et al., 92(6) J. CLIN. ENDOCRINOL. METAB. 2264-71 (2007)). For colony formation in monolayer culture, transfected cells (1×10^5 cells/well) were inoculated into a […], and 24-h later cells were selected with blasticidin (2 μg/mL) for 2 weeks. Surviving colonies were counted after staining with crystal violet. For colony formation in soft agar, cells (5×10^3 cells/well) were plated in RPMI 1640 containing 10% FBS and 0.33% agar in 12-well plates. After 3-4 weeks of culture, colonies were photographed and colony number was counted under a microscope.\nRASAL1 cDNA, which was amplified from normal thyroid (Stratagene, La Jolla, Calif.) and tagged with c-myc epitope, was inserted into a modified lenti-virus vector that was derived from plenti6/V5-DEST (Invitrogen, Grand Island, N.Y.). The virus packaging and cell infection were performed as described previously (Liu et al., 18 CANCER RES. 7311-19 (2009)). To construct the plasmid for doxycycline-inducible expression of RASAL1, the CMV promoter in the modified plenti6/V5-DEST plasmid was replaced with the Xho I-EcoR V fragment of plasmid pUHG10-3 (Gossen et al., 89(12) PROC. NATL. ACAD. SCI. USA 5547-51 (1992)), which contained hCMV minimal promoter with heptamerized upstream tet-operators. […]"}, "[5]": {"test_system": "RAS (RAS-GTP) in WRO cells", "test": "RAS pull-down (RAS activation) assay with ATP stimulation", "assay_type": "cell-based, human", "details": "WRO cells stably transfected; ATP treatment", "method": "as §1\nThe protocol for cell treatment was as described previously (Walker et al., 23(8) EMBO J. 1749-60 (2004)). Briefly, cells were serum starved for 2 h in serum-free medium at 24 h post-transfection of wild-type H-RAS. Cells were then treated with 50 μM ATP for 1 min. A RAS activation assay kit (Cell Biolabs, San Diego, Calif.) was used to assess RAS activity. After treatment, cells were washed twice with ice-cold PBS and then lysed in 1 mL of assay lysis buffer. After centrifugation at 14,000×g for 10 min at 4° C., cell lysates were incubated at 4° C. for 1 h with 40 μL of the RAF1 RAS-binding domain-agarose beads. The beads were pelleted and washed three times with assay lysis buffer, and then resuspended in 2× reducing SDS-PAGE sample buffer. The quantities of activated RAS (RAS-GTP) were analyzed by Western blotting using anti-RAS monoclonal antibody."}, "[6]": {"test_system": "WRO cells", "test": "Colony formation in soft agar, stable transfection", "assay_type": "cell-based, human", "from_the_text": "FIG. 5. Examination of the effects of reintroduction of RASAL1 on RAS signaling and growth of thyroid cancer cells. A) A representative result of Western blotting analysis of RASAL1 expression and phosphorylation of ERK and Akt as well as other related proteins as indicated in various thyroid cancer cell lines that harbor different genetic alterations. B) A representative result of colony formation of thyroid cancer cells in monolayer culture after transfection of plasmids with or without insertion of RASAL1 cDNA followed by drug selection for 2 weeks. Cell colonies were stained with crystal violet. Scale bar=1 cm. C) Western blotting analysis of RASAL1 expression and phosphorylation of ERK and Akt and related proteins as indicated in three selected thyroid cancer cell lines stably transfected with RASAL1. D) Bar graph presentation of the colony numbers (mean±standard deviation) from three experiments for cells stably transfected with empty vectors or RASAL1 as in (C). Only cell colonies containing more than 50 cells were included.\nas §1\nColony formation assays were performed as described previously (Liu et al., 92(6) J. CLIN. ENDOCRINOL. METAB. 2264-71 (2007)). […] Surviving colonies were counted after staining with crystal violet. […] After 3-4 weeks of culture, colonies were photographed and colony number was counted under a microscope."}, "[7]": {"test_system": "KAT18 cells", "test": "Anchorage independent colony formation, stable transfection", "assay_type": "cell-based, human", "details": "KAT18, stably transfected; n=3; control vector 81.67±16.29; P=0.05"}, "[8]": {"test_system": "K1 cell-derived xenograft tumors", "test": "Xenograft tumor formation in nude mice", "excerpt": "The procedures for the construction of doxycycline (Dox)-inducible expression device for RASAL1 and transfection of K1 cells are as described in the Materials and Methods section below. […] Each time point represents the average±standard deviation of the values obtained from four mice in each group. Two-tailed paired Student t test was used to compare tumor sizes at week 5. H) Photographs of the tumors that were surgically removed from mice in each group after they were killed at the end of 5 weeks from the cell inoculation. I) Weight of individual tumors surgically removed from the animals in each group corresponding to (H). The average weight of the tumors from each group is indicated with a short horizontal bar.\nThe animals' care was in accord with the guidelines of Johns Hopkins Medical Institutions. K1 cells stably transfected with doxcycycline-inducible wild-type RASAL1 or RASAL1 mutants constructed as described above were injected (1×10^7 cells/mouse) subcutaneously into flanks of female nude mice at the age of 4 weeks (Harlan Sprague Dawley, Indianapolis, Ind.). Mice were fed vehicle or 0.2 mg/mL doxycycline, which was stored in a 0.5% sucrose solution in light-proof bottles, beginning when the tumor grew to a size of 2 mm at 1.5 weeks after the inoculation of cells. Tumor size was measured, and volume was calculated using the formula (length×width2)/2. After 5 weeks, mice were sacrificed, and tumors were surgically removed, photographed, and weighed."}, "[9]": {"test_system": "MAPK and PI3K signaling pathways (pERK, pAkt) in thyroid cancer cell lines", "test": "Western blotting of ERK and Akt phosphorylation after RASAL1 expression", "assay_type": "cell-based, human", "details": "for pERK and pAkt levels: acute expression; for pERK and pAKT: stable expression"}},
  "note": "Entries after “also recorded” stand apart in the source; their conditions may differ.",
  "data": [
    {"molecule": "Nc1ncn([C@H]2C[C@H](O)[C@@H](CO)O2)c(=O)n1", "note": "[5-Aza, 5-aza-2-deoxycytidine]", "values": [
      {"measurement": "RASAL1 expression (RT-PCR)", "setting": "[1]; in six of the eight thyroid cancer cell lines tested, 5 μM for 24 hours", "result": "restored its expression"},
      {"measurement": "demethylation of RASAL1 (MSP analysis)", "setting": "[1]", "result": "induced demethylation of RASAL1"},
      {"measurement": "demethylation of RASAL1 (MSP analysis)", "setting": "[1]; listed as 5-Aza-dC", "result": "Partial demethylation"}
    ]},
    {"molecule": "B1", "values": [
      {"measurement": "colony number", "setting": "[2]", "result": "55.33±9.71"},
      {"measurement": "cell colony growth in monolayer culture", "setting": "[3]", "result": "dramatically inhibited cell colony growth"},
      {"measurement": "colony number", "setting": "[4]", "result": "40.33±6.03"},
      {"measurement": "effect on activation of RAS and increase in pAKT and pERK stimulated by ATP", "setting": "[5]", "result": "suppressed the activation of RAS and the increase in pAKT and pERK"},
      {"measurement": "colony number", "setting": "[6]; WRO cell pools, wild-type vs mutants experiment, vector 52.00±9.54, P=0.009", "result": "24.00±7.81"},
      {"measurement": "colony number", "setting": "[6]; WRO, stably transfected, n=3, control vector 48.00±13.45, P=0.03", "result": "21.67±6.35"},
      {"measurement": "colony number", "setting": "[7]", "result": "54.00±6.56"},
      {"measurement": "effect on tumor growth", "setting": "[8]; doxycycline-induced expression in K1 xenografts", "result": "statistically significant inhibitory effect"},
      {"measurement": "tumor weight", "setting": "[8]; doxycycline-induced expression, after 5 weeks, without induction 1.01±0.54, P=0.047", "result": "0.66 ± 0.53", "unit": "g"},
      {"measurement": "tumor volume", "setting": "[8]; doxycycline-induced expression, week 5, without induction 0.94±0.52, P=0.02", "result": "0.49±0.4", "unit": "cm3"},
      {"measurement": "pERK and pAkt levels", "setting": "[9]; BCPAP cells (BRAF mutation)", "result": "only reduced pAKT but not pERK"},
      {"measurement": "pERK and pAkt levels", "setting": "[9]; C643 cells (RAS mutation)", "result": "No effect was observed; also recorded: no effect on pERK and pAKT"},
      {"measurement": "pERK and pAkt levels", "setting": "[9]; FTC-133 cells (PTEN mutation)", "result": "reduced pERK but not pAKT"},
      {"measurement": "pERK and pAkt levels", "setting": "[9]; Hth7 cells (RAS mutation)", "result": "No effect was observed"},
      {"measurement": "pERK and pAkt levels", "setting": "[9]; KAT18 cells (wild-type RAS, BRAF, PIK3CA, PTEN)", "result": "decreased both pERK and pAkt levels"},
      {"measurement": "pERK and pAKT", "setting": "[9]; KAT18 cells", "result": "inhibition of pERK and pAKT was observed"},
      {"measurement": "pERK and pAkt levels", "setting": "[9]; SW1736 cells (BRAF mutation)", "result": "No effect was observed"},
      {"measurement": "pERK and pAkt levels", "setting": "[9]; TPC1 cells (RET-PTC1 rearrangement)", "result": "no effect"},
      {"measurement": "pERK and pAkt levels", "setting": "[9]; WRO cells (wild-type RAS, BRAF, PIK3CA, PTEN)", "result": "decreased both pERK and pAkt levels"},
      {"measurement": "pERK and pAKT", "setting": "[9]; WRO cells", "result": "inhibition of pERK and pAKT was observed"}
    ]}
  ]
}
